In patent US20230406884A1 (ZEALAND PHARMA A S, published 2023):
One block for each binder: values may come before it. *1 amine or outer side, *2 acyl side, *3 side chain or, on linkers, in order; H or OH if unused. Bridges are numbered along the chain shown (N, C = ends). Where no end group is shown, it is not given here. [ ]: non-standard residue; d: D form. formula (I) linker = non-peptide linker -N(R1)-C(R2)(R3)-C(R4)(R5)- (R1 H, R2 H, R3 CH3, R4 H, R5 C(O)NH-tBu), its N is acylated by the C-terminal carbonyl and its C(R4)(R5) carbon is bonded to the N-terminal N; X3 = 3‑aminomethyl‑4‑(4-(1-piperazinyl)phenyl)benzoic acid, O=C(c1ccc(-c2ccc(N3CCN([*:3])CC3)cc2)c(CN[*:1])c1)[*:2]; Thr(OMe) = O-methyl-threonine, CO[C@H](C)[C@H](N[*:1])C(=O)[*:2]; dPhe(4-CH2NH2) = NCc1ccc(C[C@@H](N)C(=O)O)cc1; Phe(4-CH2NH2) = NCc1ccc(C[C@H](N)C(=O)O)cc1; Hyp = O=C(O)[C@@H]1C[C@@H](O)CN1; d(β3hK) = NCCCC[C@@H](N)CC(=O)O; β3hK = NCCCC[C@H](N)CC(=O)O

Columns and labels:
[1] = biological target: T1, recombinant integrin α4β7 (R&D Systems, 5397-A3-050) (UniProt P13612 34-970; P26010 20-723); test: α4β7-MAdCAM-1 competition ELISA
T1 construct: coated on the ELISA plate at 1 µg/ml; also called a4b7; α4β7 integrin
Method: (§1) The plate was incubated at 4° C. overnight. […] The plate was then incubated for 1 hour at room temperature. The plate was washed three times with wash buffer (50 mM Tris, 100 mM NaCl, 1 mM MnCl₂, 0.05% Tween). To each well, 50 μl of compound diluted in assay buffer was added by transfer from a compound serial dilution plate. […] The plate was incubated at room temperature with shaking (300 rpm) for 2 hours to reach binding equilibrium. Then the plate was washed three times in wash buffer and 100 μl anti-human IgG Fc specific-HRP (Abcam, Ab97225) diluted at 1:2000 in assay buffer was added to each well. The plate was incubated at room temperature for 1 hour under agitation.
T1 sequence (P13612 34-970, chain 1 of 2): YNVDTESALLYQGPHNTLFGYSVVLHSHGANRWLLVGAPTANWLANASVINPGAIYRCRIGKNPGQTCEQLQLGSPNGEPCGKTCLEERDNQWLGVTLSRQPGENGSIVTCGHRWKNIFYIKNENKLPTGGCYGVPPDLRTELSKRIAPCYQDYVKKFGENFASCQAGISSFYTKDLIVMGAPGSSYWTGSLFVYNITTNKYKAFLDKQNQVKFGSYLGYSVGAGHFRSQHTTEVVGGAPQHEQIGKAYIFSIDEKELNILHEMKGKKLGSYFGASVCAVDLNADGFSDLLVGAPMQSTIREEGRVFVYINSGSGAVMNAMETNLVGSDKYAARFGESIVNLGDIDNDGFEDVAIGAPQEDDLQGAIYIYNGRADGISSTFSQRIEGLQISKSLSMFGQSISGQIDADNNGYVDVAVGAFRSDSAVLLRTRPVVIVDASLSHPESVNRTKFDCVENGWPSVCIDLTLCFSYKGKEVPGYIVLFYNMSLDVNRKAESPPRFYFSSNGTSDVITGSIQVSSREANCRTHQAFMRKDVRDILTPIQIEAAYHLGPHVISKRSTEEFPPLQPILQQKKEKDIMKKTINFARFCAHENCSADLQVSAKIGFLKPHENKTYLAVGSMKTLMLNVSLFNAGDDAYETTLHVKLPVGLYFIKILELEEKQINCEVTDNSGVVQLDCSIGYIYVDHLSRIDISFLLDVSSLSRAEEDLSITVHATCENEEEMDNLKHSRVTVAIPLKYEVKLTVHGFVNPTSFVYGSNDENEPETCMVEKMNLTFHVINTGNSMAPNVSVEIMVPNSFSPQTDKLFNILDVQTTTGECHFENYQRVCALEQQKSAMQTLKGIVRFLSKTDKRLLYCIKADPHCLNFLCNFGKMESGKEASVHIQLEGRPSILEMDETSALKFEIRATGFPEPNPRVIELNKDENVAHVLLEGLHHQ
T1 sequence (P26010 20-723, chain 2 of 2): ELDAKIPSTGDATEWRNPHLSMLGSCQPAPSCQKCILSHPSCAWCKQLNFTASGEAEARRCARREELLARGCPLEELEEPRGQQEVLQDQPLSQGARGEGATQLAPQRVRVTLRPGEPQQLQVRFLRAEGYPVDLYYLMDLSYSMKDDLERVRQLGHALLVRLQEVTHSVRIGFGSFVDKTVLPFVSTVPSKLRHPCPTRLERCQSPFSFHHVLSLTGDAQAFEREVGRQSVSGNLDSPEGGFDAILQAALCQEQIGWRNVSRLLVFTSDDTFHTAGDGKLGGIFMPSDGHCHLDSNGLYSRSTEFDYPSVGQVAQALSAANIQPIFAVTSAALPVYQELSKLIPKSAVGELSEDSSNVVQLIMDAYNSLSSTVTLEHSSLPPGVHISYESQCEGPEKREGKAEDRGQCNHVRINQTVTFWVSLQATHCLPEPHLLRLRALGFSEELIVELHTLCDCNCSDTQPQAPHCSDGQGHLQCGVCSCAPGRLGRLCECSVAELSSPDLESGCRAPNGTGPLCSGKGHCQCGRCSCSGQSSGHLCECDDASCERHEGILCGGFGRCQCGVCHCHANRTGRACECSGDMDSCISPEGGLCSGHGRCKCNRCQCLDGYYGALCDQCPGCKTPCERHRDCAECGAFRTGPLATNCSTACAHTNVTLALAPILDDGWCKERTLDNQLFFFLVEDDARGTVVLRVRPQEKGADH

[2] = biological target: T2, recombinant integrin α4β1 (R&D Systems, 5397-A3-050 [sic]) (UniProt P13612 34-970; P05556 21-728); test: α4β1-VCAM-1 competition ELISA
T2 construct: coated on the ELISA plate at 0.5 µg/ml; the printed catalogue number is the same as for α4β7; also called a4b1; α4β1 integrin
T2 sequence (P13612 34-970, chain 1 of 2): as the sequence (P13612 34-970, chain 1 of 2) above
T2 sequence (P05556 21-728, chain 2 of 2): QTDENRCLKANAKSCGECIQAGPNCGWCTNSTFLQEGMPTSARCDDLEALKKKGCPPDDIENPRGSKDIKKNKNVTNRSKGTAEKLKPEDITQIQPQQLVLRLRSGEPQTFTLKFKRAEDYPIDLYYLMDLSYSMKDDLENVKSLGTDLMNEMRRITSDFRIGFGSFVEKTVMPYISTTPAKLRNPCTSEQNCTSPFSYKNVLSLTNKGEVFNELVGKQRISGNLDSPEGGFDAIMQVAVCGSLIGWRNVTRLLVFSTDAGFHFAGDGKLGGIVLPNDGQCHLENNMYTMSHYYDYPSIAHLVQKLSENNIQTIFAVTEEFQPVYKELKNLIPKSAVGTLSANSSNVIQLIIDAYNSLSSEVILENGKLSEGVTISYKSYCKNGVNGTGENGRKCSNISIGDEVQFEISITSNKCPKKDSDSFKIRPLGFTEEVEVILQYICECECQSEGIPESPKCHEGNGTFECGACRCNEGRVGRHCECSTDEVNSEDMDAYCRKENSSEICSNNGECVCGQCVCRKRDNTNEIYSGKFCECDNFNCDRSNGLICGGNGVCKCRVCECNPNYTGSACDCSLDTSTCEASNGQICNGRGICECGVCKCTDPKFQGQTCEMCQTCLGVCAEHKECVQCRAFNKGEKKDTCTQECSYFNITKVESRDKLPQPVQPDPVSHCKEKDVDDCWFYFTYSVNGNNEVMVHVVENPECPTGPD
Method: as §1

[3] = biological target: T2, recombinant integrin α4β1 (R&D Systems, …); test: ratio of ELISA IC50s, α4β1 over α4β7
Method: as §1
(§2) The plate was incubated at 4° C. overnight. […] The plate was then incubated for 1 hour at room temperature. The plate was washed three times with wash buffer (50 mM Tris, 100 mM NaCl, 1 mM MnCl₂, 0.05% Tween). To each well, 50 μl of compound diluted in assay buffer was added by transfer from a compound serial dilution plate. […] The plate was incubated at room temperature with shaking (300 rpm) for 2 hours to reach binding equilibrium.

[4] = biological target: T3, recombinant integrin α4β1 (R&D Systems, 5397-A3-050) (UniProt P13612 34-970; P05556 21-728); test: IC50 on α4β1 / IC50 on α4β7
T3 construct: bought; coated on the ELISA plate; also called a4b1; α4β1 integrin
T3 sequence (P13612 34-970, chain 1 of 2): as the sequence (P13612 34-970, chain 1 of 2) above
T3 sequence (P05556 21-728, chain 2 of 2): as the sequence (P05556 21-728, chain 2 of 2) above
Method: as §1, §2

[5] = biological target: T3, recombinant integrin α4β1 (R&D Systems, …); test: competition ELISA, VCAM-Fc on coated α4β1
Method: as §1

[6] = biological target: T4, recombinant integrin α4β7 (R&D Systems, 5397-A3-050) (UniProt P13612 34-970; P26010 20-723); test: competition ELISA, MAdCAM-Fc on coated α4β7
T4 construct: bought; coated on the ELISA plate; also called a4b7; α4β7 integrin
Method: as §1
T4 sequence (P13612 34-970, chain 1 of 2): as the sequence (P13612 34-970, chain 1 of 2) above
T4 sequence (P26010 20-723, chain 2 of 2): as the sequence (P26010 20-723, chain 2 of 2) above

[7] = biological target: T5, integrin α4β7 on human cells (human, UniProt P13612 34-1032; P26010 20-798); test: cell-based or functional assay
T5 sequence (P13612 34-1032, chain 1 of 2): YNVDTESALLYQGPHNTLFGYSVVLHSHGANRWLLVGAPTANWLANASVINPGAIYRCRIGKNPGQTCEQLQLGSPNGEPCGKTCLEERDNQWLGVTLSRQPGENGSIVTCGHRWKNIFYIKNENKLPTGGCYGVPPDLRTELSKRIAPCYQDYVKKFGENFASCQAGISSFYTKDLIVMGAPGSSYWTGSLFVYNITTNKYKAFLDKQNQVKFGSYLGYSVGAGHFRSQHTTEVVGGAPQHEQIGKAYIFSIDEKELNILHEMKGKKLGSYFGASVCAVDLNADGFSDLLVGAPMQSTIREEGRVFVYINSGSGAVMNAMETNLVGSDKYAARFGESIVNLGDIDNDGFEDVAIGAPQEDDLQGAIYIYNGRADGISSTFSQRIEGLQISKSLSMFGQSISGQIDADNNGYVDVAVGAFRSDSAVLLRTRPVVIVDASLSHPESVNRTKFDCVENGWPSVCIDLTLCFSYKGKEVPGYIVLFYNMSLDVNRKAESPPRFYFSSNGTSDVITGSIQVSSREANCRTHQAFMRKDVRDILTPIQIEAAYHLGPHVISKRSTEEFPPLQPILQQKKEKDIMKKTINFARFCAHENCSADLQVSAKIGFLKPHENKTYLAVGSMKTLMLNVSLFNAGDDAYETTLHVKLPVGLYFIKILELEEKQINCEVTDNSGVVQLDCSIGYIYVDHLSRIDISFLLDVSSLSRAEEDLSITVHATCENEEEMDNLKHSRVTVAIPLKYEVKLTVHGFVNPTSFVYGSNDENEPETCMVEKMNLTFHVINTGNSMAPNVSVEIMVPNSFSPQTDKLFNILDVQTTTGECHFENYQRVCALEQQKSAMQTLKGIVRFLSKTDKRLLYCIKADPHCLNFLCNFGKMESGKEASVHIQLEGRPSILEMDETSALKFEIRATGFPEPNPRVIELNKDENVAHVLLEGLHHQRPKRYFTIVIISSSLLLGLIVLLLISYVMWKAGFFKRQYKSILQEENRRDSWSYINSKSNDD
T5 sequence (P26010 20-798, chain 2 of 2): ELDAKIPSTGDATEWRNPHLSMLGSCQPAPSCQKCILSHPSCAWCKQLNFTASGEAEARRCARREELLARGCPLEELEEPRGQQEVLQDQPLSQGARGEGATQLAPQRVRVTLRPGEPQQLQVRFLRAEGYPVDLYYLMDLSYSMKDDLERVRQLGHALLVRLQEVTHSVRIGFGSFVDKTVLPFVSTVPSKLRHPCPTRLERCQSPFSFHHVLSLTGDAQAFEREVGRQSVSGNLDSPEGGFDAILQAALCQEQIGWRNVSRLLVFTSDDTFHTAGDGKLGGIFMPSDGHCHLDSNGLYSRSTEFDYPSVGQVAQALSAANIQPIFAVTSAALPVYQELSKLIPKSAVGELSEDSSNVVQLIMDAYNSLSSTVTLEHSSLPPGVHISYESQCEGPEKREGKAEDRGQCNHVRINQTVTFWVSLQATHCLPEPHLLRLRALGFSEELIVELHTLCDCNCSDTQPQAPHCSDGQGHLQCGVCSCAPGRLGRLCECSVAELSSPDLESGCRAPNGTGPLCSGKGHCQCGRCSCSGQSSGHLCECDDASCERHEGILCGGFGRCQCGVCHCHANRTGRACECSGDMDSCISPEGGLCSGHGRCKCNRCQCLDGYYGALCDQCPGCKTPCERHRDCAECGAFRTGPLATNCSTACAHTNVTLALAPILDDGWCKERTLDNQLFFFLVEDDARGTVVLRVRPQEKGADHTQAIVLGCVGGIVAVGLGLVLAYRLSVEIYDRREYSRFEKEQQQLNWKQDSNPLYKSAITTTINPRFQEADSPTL

[8] = biological target: T6, integrin α4β1 on human cells (human, UniProt P13612 34-1032; P05556 21-798); test: VCAM-1 competition, FACS on α4β7-negative Th memory cells, human whole blood
T6 construct: whole, on cells; also called a4b1

[9] = biological target: T5, integrin α4β7 on human cells; test: competition with a saturating amount of MAdCAM, flow cytometry on α4β7+ Th memory cells in human whole blood
[10] = biological target: integrin α4β7 on RPMI8866 human cells (human, UniProt P13612 34-1032; P26010 20-798); test: cell-based or functional assay
Chain of integrin α4β7 on RPMI8866 human cells (P13612 34-1032, chain 1 of 2): as the sequence (P13612 34-1032, chain 1 of 2) above
Chain of integrin α4β7 on RPMI8866 human cells (P26010 20-798, chain 2 of 2): as the sequence (P26010 20-798, chain 2 of 2) above

IC50 [1]: 33 nM
IC50 [2]: 413 nM
B1: Compound No. 215 (peptide)
peptide: P[Phe(4-CH2NH2)][β3hK]LDI
modifications: bridge N-C; not fully specified (bridges); printed as Pro X1 X2 Leu Asp Ile
notes: macrocycle of formula (I)

ELISA Assay Ratio b1/b7 [3]: 33
IC50 [1]: 55 nM
IC50 [2]: 1800 nM
B2: Compound No. 254 (peptide)
peptide: cyclo(P[Phe(4-CH2NH2)][β3hK]LDV)
modifications: also: macrocycle closed by non-peptide linker -NH-CH(CH3)-CH(C(O)NH-tBu)- between Pro1 N and C-terminal C
notes: macrocycle of formula (I)

IC50 [1]: 69 nM
IC50 [2]: 1090 nM
B3: Compound No. 253 (peptide)
peptide: cyclo(P[dPhe(4-CH2NH2)][β3hK]LDI)
modifications: also: macrocycle closed by non-peptide linker -NH-CH(CH3)-CH(C(O)NH-tBu)- between Pro1 N and C-terminal C
notes: macrocycle of formula (I)

IC50 [2]: 2920 nM
B4: Compound No. 165 (peptide)
peptide: PXGLDT
modifications: X^y (4-aminomethyl-Phe)
notes: macrocycle of formula (I)

IC50 [2]: 1380 nM
B5: Compound No. 166 (peptide)
peptide: PXVLDT
modifications: X^y Tyr(OAllyl); X^z dVal
notes: macrocycle of formula (I)

IC50 [2]: 2000 nM
B6: Compound No. 167 (peptide)
peptide: PXSLDT
modifications: X^y Tyr(OAllyl); X^z dSer
notes: macrocycle of formula (I)

ELISA Assay Ratio b1/b7 [3]: 8.2
IC50 [1]: 54 nM
IC50 [2]: 447 nM
B7: Compound No. 150 (peptide)
peptide: PYXXDT
modifications: X^z dPip; X^1 tertbutylAla
notes: macrocycle of formula (I)

ELISA Assay Ratio b1/b7 [4]: 1.9
IC50 [5]: 119 nM
IC50 [6]: 63 nM
B8: Compound No. 40 (peptide)
peptide: PFLD[Thr(OMe)]
modifications: bridge N-C; not fully specified (bridges); printed as Pro Phe Leu Asp X
notes: macrocycle of formula (I); R1 H, R2 H, R3 CH3, R4 H, R5 C(O)-NH-tert-Butyl

IC50 in the RPM18866 cell adhesion assay [7]: 9.9 nM
IC50 [8]: 600 nM
EC50 [9]: 38 nM
B9: Compound No. 517 (peptide)
peptide: P[X3]LDT
modifications: bridge (positions not given here); not fully specified (residue 2, bridges); also: homodimer: diphenic acid diamide on piperazine N of X2 joins two copies
notes: also called ET3764; ET03764

RPMI8866 Adhesion a4b7/MAdCAM IC50 [10]: 11200 nM
B10: Compound No. 32 (peptide)
peptide: [Hyp]FLDT
modifications: linker N-C via formula (I) linker

IC50 [2]: 1090 nM
B11: Compound No. 217 (peptide)
peptide: P[dR][β3hK]LDT
modifications: bridge N-C; not fully specified (bridges); printed as Pro X1 X2 Leu Asp Thr
notes: macrocycle of formula (I)

IC50 [2]: 993 nM
B12: Compound No. 231 (peptide)
peptide: PR[β3hK]LDT
modifications: bridge N-C; not fully specified (bridges); also: macrocycle closed by non-peptide linker -NH-CH(CH3)-CH(C(O)NH-tBu)- between Pro1 N and C-terminal C
notes: macrocycle of formula (I)

ELISA Assay Ratio b1/b7 [3]: 18.2
IC50 [1]: 96 nM
IC50 [2]: 1740 nM
B13: Compound No. 220 (peptide)
peptide: PF[d(β3hK)]LDI
modifications: bridge N-C; not fully specified (bridges); printed as Pro Phe X Leu Asp Ile
notes: macrocycle of formula (I)
